Consider eight molecules from patent publication US20200079833A1 (AstraZeneca / MedImmune, published 2020).

Starred links: 1 amine or outer side, 2 acyl side, 3 side chain; linkers in the order of their positions; H or OH if unused. Non-standard residues stand in square brackets, D forms with d. Groups on a side chain read outwards from the residue. Primed or numbered codes have the meaning given here. No end group written: not given here. *: point of attachment. γGlu = O=C(O)[C@H](CCC(=O)[*:2])N[*:1]; Stearoyl = CCCCCCCCCCCCCCCCCC(=O)*; Palmitoyl = CCCCCCCCCCCCCCCC(=O)*; αMeF = C[C@](N)(Cc1ccccc1)C(=O)O; αMeK = C[C@](N)(CCCCN)C(=O)O; αMeS = C[C@](N)(CO)C(=O)O; PEG2′ = not defined here; Aib = CC(C)(N)C(=O)O

What all share (experiment): cell-based or functional assay
Experiment [1] deals with T1, glucose-dependent insulinotropic peptide (gastric inhibitory polypeptide) receptor (human, UniProt P48546 22-466).
T1 sequence (looked up): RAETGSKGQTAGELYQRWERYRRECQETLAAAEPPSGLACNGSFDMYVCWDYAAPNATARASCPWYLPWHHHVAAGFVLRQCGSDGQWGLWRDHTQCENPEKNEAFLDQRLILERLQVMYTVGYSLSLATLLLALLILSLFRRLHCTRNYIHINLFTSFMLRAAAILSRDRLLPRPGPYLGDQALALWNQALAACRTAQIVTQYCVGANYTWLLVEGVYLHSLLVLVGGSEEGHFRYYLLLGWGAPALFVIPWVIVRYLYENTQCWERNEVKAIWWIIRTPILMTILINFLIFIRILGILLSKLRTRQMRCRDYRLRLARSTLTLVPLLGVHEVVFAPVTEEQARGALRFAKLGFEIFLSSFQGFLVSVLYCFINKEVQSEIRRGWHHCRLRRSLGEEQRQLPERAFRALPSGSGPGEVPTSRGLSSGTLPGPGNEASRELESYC

Another experiment concerns the target glucagon receptor (human, UniProt P47871 26-477).
A further experiment addresses GLP-1 receptor (human, UniProt P43220 24-463).

glucagon receptor, sequence (P47871 26-477): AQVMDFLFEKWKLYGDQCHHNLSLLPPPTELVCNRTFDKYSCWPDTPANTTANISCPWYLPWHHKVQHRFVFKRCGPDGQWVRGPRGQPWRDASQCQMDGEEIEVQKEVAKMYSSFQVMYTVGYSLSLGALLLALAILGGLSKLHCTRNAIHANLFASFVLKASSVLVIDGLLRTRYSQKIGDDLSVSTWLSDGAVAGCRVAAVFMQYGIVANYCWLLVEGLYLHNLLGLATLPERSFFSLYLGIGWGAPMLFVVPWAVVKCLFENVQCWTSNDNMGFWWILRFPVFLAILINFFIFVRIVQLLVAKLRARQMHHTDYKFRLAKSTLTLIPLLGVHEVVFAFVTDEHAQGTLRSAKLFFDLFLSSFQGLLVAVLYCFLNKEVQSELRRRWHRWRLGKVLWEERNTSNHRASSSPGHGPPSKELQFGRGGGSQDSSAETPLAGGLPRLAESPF

B1: SEQ ID NO 38 (peptide)
peptide: H[Aib]EGS[αMeF]TSDVSS[αMeF]LEGEAAKE[αMeF]IA[αMeF]VVKGGK([PEG2′-PEG2′-γGlu-Stearoyl])-NH2
For the molecule B1, the “Primary assay EC50 (cAMP), n1” value in experiment [1] was found to be 25 nM; in the experiment with glucagon receptor it was 25 nM; with GLP-1 receptor, 0.062 nM. Also, the figures for the “Primary assay EC50 (cAMP), n2” value (in experiment [1]; with glucagon receptor; with GLP-1 receptor) were 25 nM, 25 nM and 0.082 nM, respectively. In addition, in the experiment with GLP-1 receptor, the “Primary assay EC50 (cAMP), Mean pM GLP-1R” value turned out to be 72 pM.

B2: SEQ ID NO 36 (peptide)
peptide: H[Aib]EGS[αMeF]TDDV[αMeS]S[αMeF]LEGEAAK([PEG2′-PEG2′-γGlu-Stearoyl])E[αMeF]IA[αMeF]VV[αMeK]GG-NH2
With B2, in experiment [1], the “Primary assay EC50 (cAMP), n1” value worked out at 84 nM and the “Primary assay EC50 (cAMP), n2” value stood at 25 nM. In addition, in the experiment with glucagon receptor, the “Primary assay EC50 (cAMP), n1” value is 84 nM and the “Primary assay EC50 (cAMP), n2” value was determined as 25 nM. In addition, in the experiment with GLP-1 receptor, the “Primary assay EC50 (cAMP), Mean pM GLP-1R” value was 44200 pM; the “Primary assay EC50 (cAMP), n1” value turned out to be 63 nM; the “Primary assay EC50 (cAMP), n2” value turned out to be 25 nM.

B3: SEQ ID NO 34 (peptide)
peptide: H[Aib]EGS[αMeF]TSDV[αMeS]S[αMeF]LEGEAAK([γGlu-Palmitoyl])E[αMeF]IA[αMeF]VV[αMeK]GG-NH2
modifications: N-terminus assumed
SMILES: CCCCCCCCCCCCCCCC(=O)N[C@@H](CCC(=O)NCCCC[C@H](NC(=O)[C@H](C)NC(=O)[C@H](C)NC(=O)[C@H](CCC(=O)O)NC(=O)CNC(=O)[C@H](CCC(=O)O)NC(=O)[C@H](CC(C)C)NC(=O)[C@](C)(Cc1ccccc1)NC(=O)[C@H](CO)NC(=O)[C@](C)(CO)NC(=O)[C@@H](NC(=O)[C@H](CC(=O)O)NC(=O)[C@H](CO)NC(=O)[C@@H](NC(=O)[C@](C)(Cc1ccccc1)NC(=O)[C@H](CO)NC(=O)CNC(=O)[C@H](CCC(=O)O)NC(=O)C(C)(C)NC(=O)[C@@H](N)Cc1c[nH]cn1)[C@@H](C)O)C(C)C)C(=O)N[C@@H](CCC(=O)O)C(=O)N[C@@](C)(Cc1ccccc1)C(=O)N[C@H](C(=O)N[C@@H](C)C(=O)N[C@@](C)(Cc1ccccc1)C(=O)N[C@H](C(=O)N[C@H](C(=O)N[C@@](C)(CCCCN)C(=O)NCC(=O)NCC(N)=O)C(C)C)C(C)C)[C@@H](C)CC)C(=O)O
Take B3: in experiment [1], the “Primary assay EC50 (cAMP), n1” value was 93 nM and the “Primary assay EC50 (cAMP), n2” value came to 93 nM. Further, in the experiment with glucagon receptor, the “Primary assay EC50 (cAMP), n1” value worked out at 93 nM and the “Primary assay EC50 (cAMP), n2” value was found to be 93 nM. Further, in the experiment with GLP-1 receptor, the “Primary assay EC50 (cAMP), Mean pM GLP-1R” value came out at 43 pM; the “Primary assay EC50 (cAMP), n1” value amounted to 0.039 nM; the “Primary assay EC50 (cAMP), n2” value amounted to 0.048 nM.

B4: SEQ ID NO 35 (peptide)
peptide: H[Aib]EGS[αMeF]TDDV[αMeS]S[αMeF]LEGEAA[αMeK]E[αMeF]IA[αMeF]VV[αMeK]GGK([γGlu-Palmitoyl])-NH2
modifications: N-terminus assumed
SMILES: CCCCCCCCCCCCCCCC(=O)N[C@@H](CCC(=O)NCCCC[C@H](NC(=O)CNC(=O)CNC(=O)[C@](C)(CCCCN)NC(=O)[C@@H](NC(=O)[C@@H](NC(=O)[C@](C)(Cc1ccccc1)NC(=O)[C@H](C)NC(=O)[C@@H](NC(=O)[C@](C)(Cc1ccccc1)NC(=O)[C@H](CCC(=O)O)NC(=O)[C@](C)(CCCCN)NC(=O)[C@H](C)NC(=O)[C@H](C)NC(=O)[C@H](CCC(=O)O)NC(=O)CNC(=O)[C@H](CCC(=O)O)NC(=O)[C@H](CC(C)C)NC(=O)[C@](C)(Cc1ccccc1)NC(=O)[C@H](CO)NC(=O)[C@](C)(CO)NC(=O)[C@@H](NC(=O)[C@H](CC(=O)O)NC(=O)[C@H](CC(=O)O)NC(=O)[C@@H](NC(=O)[C@](C)(Cc1ccccc1)NC(=O)[C@H](CO)NC(=O)CNC(=O)[C@H](CCC(=O)O)NC(=O)C(C)(C)NC(=O)[C@@H](N)Cc1c[nH]cn1)[C@@H](C)O)C(C)C)[C@@H](C)CC)C(C)C)C(C)C)C(N)=O)C(=O)O
On to B4, for which the entries for the “Primary assay EC50 (cAMP), n1” value (in experiment [1]; with glucagon receptor; with GLP-1 receptor) were 89 nM, 89 nM and 4.9 nM, respectively. The “Primary assay EC50 (cAMP), n2” value in experiment [1] worked out at 27 nM; with glucagon receptor, 27 nM; with GLP-1 receptor, 1.7 nM. The “Primary assay EC50 (cAMP), Mean pM GLP-1R” value with GLP-1 receptor worked out at 3260 pM.

B5: SEQ ID NO 33 (peptide)
peptide: H[Aib]EGS[αMeF]TSDV[αMeS]S[αMeF]LEGEAAK([PEG2′-PEG2′-γGlu-Stearoyl])E[αMeF]IA[αMeF]VV[αMeK]GG-NH2
On to B5, for which, in experiment [1], the “Primary assay EC50 (cAMP), n1” value came out at 25 nM and the “Primary assay EC50 (cAMP), n2” value was determined as 25 nM. Besides, in the experiment with glucagon receptor, the “Primary assay EC50 (cAMP), n1” value was found to be 25 nM and the “Primary assay EC50 (cAMP), n2” value was found to be 25 nM. For the same molecule, in the experiment with GLP-1 receptor, the “Primary assay EC50 (cAMP), Mean pM GLP-1R” value was 100 pM; the “Primary assay EC50 (cAMP), n1” value was determined as 0.064 nM; the “Primary assay EC50 (cAMP), n2” value was 0.14 nM.

B6: SEQ ID NO 37 (peptide)
peptide: H[Aib]EGS[αMeF]TDDV[αMeS]S[αMeF]LEGEAAK([γGlu-Palmitoyl])E[αMeF]IA[αMeF]VV[αMeK]GG-NH2
modifications: N-terminus assumed
SMILES: CCCCCCCCCCCCCCCC(=O)N[C@@H](CCC(=O)NCCCC[C@H](NC(=O)[C@H](C)NC(=O)[C@H](C)NC(=O)[C@H](CCC(=O)O)NC(=O)CNC(=O)[C@H](CCC(=O)O)NC(=O)[C@H](CC(C)C)NC(=O)[C@](C)(Cc1ccccc1)NC(=O)[C@H](CO)NC(=O)[C@](C)(CO)NC(=O)[C@@H](NC(=O)[C@H](CC(=O)O)NC(=O)[C@H](CC(=O)O)NC(=O)[C@@H](NC(=O)[C@](C)(Cc1ccccc1)NC(=O)[C@H](CO)NC(=O)CNC(=O)[C@H](CCC(=O)O)NC(=O)C(C)(C)NC(=O)[C@@H](N)Cc1c[nH]cn1)[C@@H](C)O)C(C)C)C(=O)N[C@@H](CCC(=O)O)C(=O)N[C@@](C)(Cc1ccccc1)C(=O)N[C@H](C(=O)N[C@@H](C)C(=O)N[C@@](C)(Cc1ccccc1)C(=O)N[C@H](C(=O)N[C@H](C(=O)N[C@@](C)(CCCCN)C(=O)NCC(=O)NCC(N)=O)C(C)C)C(C)C)[C@@H](C)CC)C(=O)O
As for B6, the “Primary assay EC50 (cAMP), n1” value is 92 nM in experiment [1], 92 nM with glucagon receptor and 7.3 nM with GLP-1 receptor. For the same molecule, the “Primary assay EC50 (cAMP), n2” value in experiment [1] was 28 nM; in the experiment with glucagon receptor, 28 nM; with GLP-1 receptor, 1.7 nM. In the experiment with GLP-1 receptor, the “Primary assay EC50 (cAMP), Mean pM GLP-1R” value was 4500 pM.

B7: SEQ ID NO 32 (peptide)
peptide: H[Aib]EGS[αMeF]TSDV[αMeS]S[αMeF]LEGEAA[αMeK]E[αMeF]IA[αMeF]VV[αMeK]GGK([γGlu-Palmitoyl])-NH2
modifications: N-terminus assumed
SMILES: CCCCCCCCCCCCCCCC(=O)N[C@@H](CCC(=O)NCCCC[C@H](NC(=O)CNC(=O)CNC(=O)[C@](C)(CCCCN)NC(=O)[C@@H](NC(=O)[C@@H](NC(=O)[C@](C)(Cc1ccccc1)NC(=O)[C@H](C)NC(=O)[C@@H](NC(=O)[C@](C)(Cc1ccccc1)NC(=O)[C@H](CCC(=O)O)NC(=O)[C@](C)(CCCCN)NC(=O)[C@H](C)NC(=O)[C@H](C)NC(=O)[C@H](CCC(=O)O)NC(=O)CNC(=O)[C@H](CCC(=O)O)NC(=O)[C@H](CC(C)C)NC(=O)[C@](C)(Cc1ccccc1)NC(=O)[C@H](CO)NC(=O)[C@](C)(CO)NC(=O)[C@@H](NC(=O)[C@H](CC(=O)O)NC(=O)[C@H](CO)NC(=O)[C@@H](NC(=O)[C@](C)(Cc1ccccc1)NC(=O)[C@H](CO)NC(=O)CNC(=O)[C@H](CCC(=O)O)NC(=O)C(C)(C)NC(=O)[C@@H](N)Cc1c[nH]cn1)[C@@H](C)O)C(C)C)[C@@H](C)CC)C(C)C)C(C)C)C(N)=O)C(=O)O
In the case of B7, the results for the “Primary assay EC50 (cAMP), n1” value (in experiment [1]; in the experiment with glucagon receptor; with GLP-1 receptor) were 90 nM, 90 nM and 0.036 nM, respectively. In addition, the figures for the “Primary assay EC50 (cAMP), n2” value (in experiment [1]; in the experiment with glucagon receptor; with GLP-1 receptor) were 90 nM, 90 nM and 0.018 nM, respectively. Moreover, the “Primary assay EC50 (cAMP), Mean pM GLP-1R” value with GLP-1 receptor turned out to be 27 pM.

B8: SEQ ID NO 6 (peptide)
peptide: HXEGTFTSDVSSYLEGQAAKEFIAWLVKGRK
modifications: Aib 2; K(ε-(PEG)2-(PEG)2-γE-Stearate) after R30; C-terminal amide
With B8, the “Primary assay EC50 (cAMP), n1” value in experiment [1] is 22 nM; with glucagon receptor, 22 nM; in the experiment with GLP-1 receptor it was 0.0048 nM. For the same molecule, the “Primary assay EC50 (cAMP), n2” value in experiment [1] worked out at 22 nM; with glucagon receptor, 22 nM; with GLP-1 receptor, 0.0053 nM. For the same molecule, the “Primary assay EC50 (cAMP), Mean pM GLP-1R” value in the experiment with GLP-1 receptor worked out at 5.1 pM.
